Target: the molecule itself
Experiment: cryo-EM structure; single-particle cryo-EM of purified AtOSCA1.2 in 25 mM HEPES pH 7.4, 150 mM NaCl, 0.1% digitonin; 3.68 Å

B1: OSCA1.2 from Arabidopsis thaliana (AtOSCA1.2) (natural protein, UniProt Q5XEZ5 1-771, looked up)
chain: MATLQDIGVSAGINILSAFVFFIIFAVLRLQPFNDRVYFSKWYLKGLRSSPARGGAFAQRFVNLDFRSYMKFLNWMPEALKMPEPELIDHAGLDSVVYLRIYWLGLKIFTPIAVLAWAVLVPVNWTNNTLEMAKQLRNVTSSDIDKLSVSNIPEYSMRFWTHIVMAYAFTIWTCYVLMKEYETIANMRLQFVASEARRPDQFTVLVRNVPPDADESVSELVEHFFLVNHPDHYLTHQVVCNANKLADLVKKKKKLQNWLDYYQLKYARNNSQRIMVKLGFLGLWGQKVDAIEHYIAEIDKISKEISKEREEVVNDPKAIMPAAFVSFKTRWAAAVCAQTQQTRNPTQWLTEWAPEPRDVFWSNLAIPYVSLTVRRLIMHVAFFFLTFFFIVPIAFVQSLATIEGIVKAAPFLKFIVDDKFMKSVIQGFLPGIALKLFLAFLPSILMIMSKFEGFTSISSLERRAAFRYYIFNLVNVFLASVIAGAAFEQLNSFLNQSANQIPKTIGVAIPMKATFFITYIMVDGWAGVAGEILMLKPLIMFHLKNAFLVKTDKDREEAMDPGSIGFNTGEPRIQLYFLLGLVYAPVTPMLLPFILVFFALAYIVYRHQIINVYNQEYESAAAFWPDVHGRVIAALVISQLLLMGLLGTKHAALAAPFLIALPVLTIGFHHFCKGRYEPAFIRYPLQEAMMKDTLETAREPNLNLKGYLQNAYVHPVFKGDEDDYDIDDKLGKFEDEAIIVPTKRQSRRNTPAPSIISGDDSPSLPFSGKLV
notes: OSCA1.2 (alias CSC1), Arabidopsis thaliana, full length, 771 amino acids; Homodimer in the cryo-EM structure; 683 residues were modelled and the 54 carboxyl-terminal residues are missing from the model; also called CSC1; source: Sf-9 insect cells (baculovirus), purified (digitonin, Ni-NTA, Superose 6 SEC)
- stoichiometry N: 2
